The record followed here is patent US20260042834A1 (HBM ALPHA THERAPEUTICS, published 2026).

Values joined by “and” are separate entries in the source; they are usually repeats but may differ in a detail not shown here. Identical values can stand only once. Like-named read-outs stand apart in the source and are kept apart here. Bounds are passed on as bounds.

For orientation: EC50 means the concentration giving half of the maximal effect. A low value points to higher potency in that assay. One may read the % Inhibition as how much of the control response was suppressed. The low end stands for a weak effect, the high end for a strong effect. By Kd is commonly meant the free concentration of one partner at which half of the binding sites on the other are occupied at equilibrium, for simple one-to-one binding. The low end stands for higher affinity, the high end for lower affinity. Usually koff stands for the first-order rate constant of dissociation. High values mean fast dissociation, low ones slow dissociation. Usually kon stands for the second-order rate constant of association.

Assay [1] has as its target T1, CRH (NT-Biotin) (human and mouse (same sequence), not fully specified; biotin at the N-terminus).
T1 peptide: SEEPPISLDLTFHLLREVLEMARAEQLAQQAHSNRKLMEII
Description: ELISA, biotinylated CRH on streptavidin plate. The method, then: (§1) Streptavidin (Thermo, Cat: 21125) was diluted in PBS to a concentration of 2 μg/ml. 100 μl of diluted streptavidin was added per well to ELISA microplates, and the plates were incubated overnight at 4° C. […] 100 μL of 3,3′,5,5′-tetramethylbenzidine (TMB) substrate (Biopanda, Cat: TMB-S-003) was added, and the plates were incubated at room temperature for 15 minutes. 100 μL of ELISA stopping solution (Solarbio, Cat #: C1058) was added to terminate the reaction, and the optical density at 450 nm (OD450 nm) was determined by an ELISA plate reader (Molecular Devices, Spectra max 384 plus).

Assay [2] addresses T2, CRH (CT-Biotin) (human and mouse (same sequence), biotin on an added C-terminal K (CRH-K-Biotin)).
T2 construct: also called Peptide 4 (CRH-Biotin)
T2 peptide: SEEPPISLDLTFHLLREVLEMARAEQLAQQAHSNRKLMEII
The assay is described as follows: ELISA, biotinylated CRH on streptavidin plate. The method, then:
as §1
For orientation: In an ELISA, binding on a coated surface is turned into a signal by an enzyme label.

Assay [3] has as its target T1, CRH (NT-Biotin). The assay is described as follows: ELISA, biotinylated CRH on streptavidin plate. The method, then: as §1
For assay [4], the target named is T2, CRH (CT-Biotin). Description: ELISA, biotinylated CRH on streptavidin plate. Here is the method: as §1
In assay [5] the target is T1, CRH (NT-Biotin). Description: ELISA, biotinylated CRH on streptavidin plate. Here is the method:
as §1

Assay [6] deals with T2, CRH (CT-Biotin). Description: ELISA, biotinylated CRH on streptavidin plate. Here is the method: as §1
Assay [7] addresses T3, corticotropin-releasing hormone (CRH) peptide (human and mouse (same sequence), not fully specified).
T3 peptide: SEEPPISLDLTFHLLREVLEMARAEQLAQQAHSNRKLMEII
Description: cell-based or functional assay.

Assay [8] addresses T3, corticotropin-releasing hormone (CRH) …. The assay is described as follows: cell-based or functional assay.
Assay [9] has the same target. The assay is described as follows: cell-based or functional assay.
Assay [10] has as its target T1, CRH (NT-Biotin). The assay is described as follows: ELISA, biotinylated CRH on streptavidin plate. The method, then:
as §1

Assay [11] has as its target T2, CRH (CT-Biotin). Description: ELISA, biotinylated CRH on streptavidin plate. The method, then: as §1
The target in assay [12] is T3, corticotropin-releasing hormone (CRH) …. The assay is described as follows: cell-based or functional assay.
For assay [13] the target is unchanged. Description: cell-based or functional assay.
Assay [14] addresses T1, CRH (NT-Biotin). The assay is described as follows: ELISA, biotinylated CRH on streptavidin plate. An outline of the steps: (§2)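 First, streptavidin (2 μg/ml in PBS) is coated onto wells overnight at 4° C. Then, following peptide capture and binding, TMB is added for 15 minutes at room temperature. Finally, the reaction is stopped and OD450 nm is measured.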
The target in assay [15] is T2, CRH (CT-Biotin). The assay is described as follows: ELISA, biotinylated CRH on streptavidin plate. The procedure, abridged: as §2
The target of assay [16] is T1, CRH (NT-Biotin). The assay is described as follows: ELISA, biotinylated CRH on streptavidin plate. Here is the method: as §1
The target in assay [17] is T2, CRH (CT-Biotin). Description: ELISA, biotinylated CRH on streptavidin plate. Here is the method: as §1
The target of assay [18] is T3, corticotropin-releasing hormone (CRH) …. Description: cell-based or functional assay.
The target in assay [19] is T4, biotinylated CRH (human and mouse, not fully specified; biotinylated, position not stated).
T4 construct: also called Biotin-CRH; biotin-labeled CRH
T4 peptide: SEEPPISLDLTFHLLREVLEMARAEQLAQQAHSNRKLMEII
The assay is described as follows: Octet in-tandem, row = 1st mAb; competitor (2nd mAb) PR005660. The method, then:
(§3) SA sensors (Fortebio, Cat #18-5019) were hydrated in running buffer for 10 mins.
In general terms: BLI is a label-free optical method that tracks binding on a fibre tip over time.

Assay [20] has as its target T4, biotinylated CRH. Description: Octet in-tandem, row = 1st mAb; competitor (2nd mAb) PR302334. The method, then:
as §3

In assay [21] the target is T4, biotinylated CRH. The assay is described as follows: Octet in-tandem, row = 1st mAb; competitor (2nd mAb) PR302341-34. The method, then: as §3
The target of assay [22] is T4, biotinylated CRH. The assay is described as follows: Octet in-tandem, row = 1st mAb; competitor (2nd mAb) PR301777. Here is the method: as §3
Assay [23] has as its target T4, biotinylated CRH. The assay is described as follows: Octet in-tandem, row = 1st mAb; competitor (2nd mAb) PR006669. Here is the method:
as §3

Assay [24] has as its target T4, biotinylated CRH. The assay is described as follows: Octet in-tandem, row = 1st mAb; competitor (2nd mAb) PR302309-8. The method, then:
as §3

Assay [25] deals with T4, biotinylated CRH. Description: Octet in-tandem, row = 1st mAb; competitor (2nd mAb) PR303394. The method, then: as §3
Assay [26] addresses T4, biotinylated CRH. The assay is described as follows: Octet BLI, biotinylated CRH on SA sensor.
Assay [27] addresses T5, human UCN2 peptide (human, UniProt Q96RP3 72-109, limits assumed, not fully specified; biotin at N- or C-terminus in the ELISA).
T5 construct: also called hUCN2; hUCN2 (NT Biotin)
T5 peptide (looked up): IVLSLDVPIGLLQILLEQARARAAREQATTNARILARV
Description: ELISA, biotinylated hUCN2 on streptavidin plates. An outline of the steps:
(§4)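 Streptavidin-coated plates (2 μg/mL, overnight 4° C.), blocked with 2% BSA/0.05% Tween-20 PBS pH 7.4, then loaded with 1 μg/mL N- or C-terminally biotinylated hUCN peptide, 1 hour at 37° C. Detection by TMB substrate, 15 minutes at room temperature, stopped, OD450 nm read.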

Assay [28] has as its target T6, human UCN3 peptide (human, UniProt Q969E3 120-157, not fully specified; biotin at N- or C-terminus in the ELISA).
T6 construct: also called hUCN3; hUCN3 (NT Biotin)
T6 peptide (looked up): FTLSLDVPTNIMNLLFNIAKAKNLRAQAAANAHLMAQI
Description: ELISA, biotinylated hUCN3 on streptavidin plates. An outline of the steps:
as §4

The target in assay [29] is T7, human UCN1 peptide (human, UniProt P55089 83-122, not fully specified; biotin at N- or C-terminus in the ELISA).
T7 construct: also called hUCN1; hUCN1 (NT Biotin)
T7 peptide (looked up): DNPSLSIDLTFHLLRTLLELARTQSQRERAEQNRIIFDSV
The assay is described as follows: ELISA, biotinylated hUCN1 on streptavidin plates.

B1: PR004290 (antibody, human IgG1, kappa, V domains shown)
VH: EVQLVESGGVLVQPGGSLRLSCAASGFTFSSYWMTWVRQAPGKGLEWVANIKQDGSEKYYVDSVKGRFTISRDNAKNSLFLQMNSLRAEDTAVYYCARTLIFDYWGQGTLVTVSS
VL: DIVMTQSPLSLPVTPGEPASISCRSSQSLLHSTGYNSLEWYLQKPGQSPQLLIYLGSNRASGVPDRFSGSGSGTDFTLKISRVEAEDVGIYYCMQTLQTPITFGQGTRLEIKR
notes: Series 1; human IgG1 wildtype Fc; also called Hybridoma Clone 28b3
On to B1, for which the EC50 in assay [1] is 0.039 nM; in [2] it was 0.07 nM; in assay [3] it was 0.039 nM; in assay [4] it was 0.07 nM; in [5], 0.039 nM; in assay [6], 0.07 nM. Besides, the EC50 in assay [10] is 0.039 nM; in [11], 0.07 nM; in assay [14] it was 0.029 nM; in [15], 0.064 nM and 0.032 nM; in [16], 0.029 nM; in [17], 0.032 nM. Besides, the “hCRHR1 Luciferase Reporter Assay IC50” value in [7] was 5.41 nM; in assay [9], 3.69 nM and 4.87 nM; in assay [12], 1.83 nM; in assay [13], 3.69 nM; in assay [18], 1.83 nM. In addition, the “mCrhr1 Luciferase Reporter Assay IC50” value in assay [7] was 18.5 nM; in assay [8], 5.24 nM; in assay [9], 17 nM and 7.78 nM; in [12], 5.24 nM; in assay [13], 13 nM; in assay [18], 5.24 nM.

B2: PR302334 (antibody, human IgG1, kappa, V domains shown)
VH: EVKLVESGGGLVKPGGSLKLSCAASGFTFSTYAMSWVRQTPEKRLEWVASIRSGGTTYYPDSVKGRFTISRDNARNILYLQMSSLRSEDTAIYYCTRGIDWGQGTLVTVSA
VL: NIVMTQTPKFLLVSAGDRITITCKASQSVNNDVAWYQQKPGQSPKLLIYYASNRYTGVPDRFTGSGYGTDFTFTISTVQAEDLAVYFCQQDYSSWTFGGGTNLEIKR
notes: Series 9; mouse variable domains with human IgG1 wildtype Fc
Take B2: the “% Inhibition” value worked out at 92% in assay [19]; 95% in assay [20]; 88% in [21]; 90% in assay [22]; 93% in assay [23]; 91% in assay [24]. In addition, the “% Inhibition” value in assay [25] was 89%. The molecule also returned a Kd in assay [26] below 0.001 nM. In assay [26], this molecule showed a koff below 1e-07 s⁻¹. In addition, the kon in assay [26] is 669000 M⁻¹ s⁻¹.

B3: PR302334-26 (antibody, human IgG1, kappa, V domains shown)
VH: EVQLVESGGGLVQPGGSLRLSCAASGFTFSTYAMSWVRQAPGKGLEWVASIRSGGTTYYPDSVKGRFTISRDNSKNSLYLQMNSLRAEDTAVYYCTRGIDWGQGTTVTVSS
VL: DIVMTQSPDSLAVSLGERATINCKASQSVNNDVAWYQQKPGQPPRLLIYYASNRYTGVPDRFSGSGSGTDFTLTISSLQAEDLAVYFCQQDYSSWTFGGGTKVEIKR
notes: Humanized variant of PR302334
With B3, the binding result in assay [27], in assay [28] and in [29] was “no binding (tested: 100 nM)” in each case.
